Assays:
[1] = target: ATP-binding cassette sub-family C member 2 (Homo sapiens, UniProt Q92887); experiment: (§1) TP_TRANSPORTER: uptake in bile canalicular membrane vesicles; assay type: functional, cell membranes, Bile canalicular membrane vesicle
[2] = substrate: CNc1nc2c(Cc3cccnc3)c(C)c(O[C@@H]3O[C@H](C(=O)O)[C@@H](O)[C@H](O)[C@H]3O)c(C)c2s1; experiment: as §1; assay type: functional, cell membranes, Homo sapiens, Bile canalicular membrane vesicle
[3] = substrate: N[C@@H](CCC(=O)N[C@H](CSc1ccc([N+](=O)[O-])cc1[N+](=O)[O-])C(=O)NCC(=O)O)C(=O)O; experiment: as §1; assay type: functional, cell membranes, Homo sapiens, Bile canalicular membrane vesicle

## Cc1c(F)c(N2CCNC(C)C2)cc2c1c(=O)c(C(=O)O[C@@H]1O[C@H](C(=O)O)[C@@H](O)[C@H](O)[C@H]1O)cn2C1CC1 (stereo partly drawn) [GREPAFLOXACIN GLUCURONIDE]
[1]
  Activity: substrate [+]

B1: ATP-binding cassette sub-family C member 2 (Homo sapiens) (protein)
chain: MLEKFCNSTFWNSSFLDSPEADLPLCFEQTVLVWIPLGYLWLLAPWQLLHVYKSRTKRSSTTKLYLAKQVFVGFLLILAAIELALVLTEDSGQATVPAVRYTNPSLYLGTWLLVLLIQYSRQWCVQKNSWFLSLFWILSILCGTFQFQTLIRTLLQGDNSNLAYSCLFFISYGFQILILIFSAFSENNESSNNPSSIASFLSSITYSWYDSIILKGYKRPLTLEDVWEVDEEMKTKTLVSKFETHMKRELQKARRALQRRQEKSSQQNSGARLPGLNKNQSQSQDALVLEDVEKKKKKSGTKKDVPKSWLMKALFKTFYMVLLKSFLLKLVNDIFTFVSPQLLKLLISFASDRDTYLWIGYLCAILLFTAALIQSFCLQCYFQLCFKLGVKVRTAIMASVYKKALTLSNLARKEYTVGETVNLMSVDAQKLMDVTNFMHMLWSSVLQIVLSIFFLWRELGPSVLAGVGVMVLVIPINAILSTKSKTIQVKNMKNKDKRLKIMNEILSGIKILKYFAWEPSFRDQVQNLRKKELKNLLAFSQLQCVVIFVFQLTPVLVSVVTFSVYVLVDSNNILDAQKAFTSITLFNILRFPLSMLPMMISSMLQASVSTERLEKYLGGDDLDTSAIRHDCNFDKAMQFSEASFTWEHDSEATVRDVNLDIMAGQLVAVIGPVGSGKSSLISAMLGEMENVHGHITIKGTTAYVPQQSWIQNGTIKDNILFGTEFNEKRYQQVLEACALLPDLEMLPGGDLAEIGEKGINLSGGQKQRISLARATYQNLDIYLLDDPLSAVDAHVGKHIFNKVLGPNGLLKGKTRLLVTHSMHFLPQVDEIVVLGNGTIVEKGSYSALLAKKGEFAKNLKTFLRHTGPEEEATVHDGSEEEDDDYGLISSVEEIPEDAASITMRRENSFRRTLSRSSRSNGRHLKSLRNSLKTRNVNSLKEDEELVKGQKLIKKEFIETGKVKFSIYLEYLQAIGLFSIFFIILAFVMNSVAFIGSNLWLSAWTSDSKIFNSTDYPASQRDMRVGVYGALGLAQGIFVFIAHFWSAFGFVHASNILHKQLLNNILRAPMRFFDTTPTGRIVNRFAGDISTVDDTLPQSLRSWITCFLGIISTLVMICMATPVFTIIVIPLGIIYVSVQMFYVSTSRQLRRLDSVTRSPIYSHFSETVSGLPVIRAFEHQQRFLKHNEVRIDTNQKCVFSWITSNRWLAIRLELVGNLTVFFSALMMVIYRDTLSGDTVGFVLSNALNITQTLNWLVRMTSEIETNIVAVERITEYTKVENEAPWVTDKRPPPDWPSKGKIQFNNYQVRYRPELDLVLRGITCDIGSMEKIGVVGRTGAGKSSLTNCLFRILEAAGGQIIIDGVDIASIGLHDLREKLTIIPQDPILFSGSLRMNLDPFNNYSDEEIWKALELAHLKSFVASLQLGLSHEVTEAGGNLSIGQRQLLCLGRALLRKSKILVLDEATAAVDLETDNLIQTTIQNEFAHCTVITIAHRLHTIMDSDKVMVLDNGKIIECGSPEELLQIPGPFYFMAKEAGIENVNSTKF
[2]
  Km: 14.1 µM
[3]
  Km: 193 µM

From ChEMBL document CHEMBL2073772, “Primary active transport of organic anions on bile canalicular membrane in humans” (Am J Physiol, 1999)
